Changes are numbered by the printed parent chain. Numbers in names are those of the source.
System: Lenti-X 293T cells
Test: YFP fluorescence quenching anion reporter plate reader assay of engineered receptors stimulated with acetylcholine or a non-native ligand
Format: cell-based
Details: for percent quench of YFP fluorescence, 10 uM ach: acetylcholine 10 uM; for percent quench of YFP fluorescence, 30 uM ach: acetylcholine 30 uM; for percent quench of YFP fluorescence, 100 uM ach: acetylcholine 100 uM; for percent quench of YFP fluorescence, 300 uM ach: acetylcholine 300 uM; for percent quench of YFP fluorescence, 1 mM ach: acetylcholine 1 mM; for percent quench of YFP fluorescence, 3 mM ach: acetylcholine 3 mM
Outline: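 Lenti-X 293T cells carrying a YFP anion reporter were transiently transfected with channel DNA and assayed the next day in HEPES-buffered ECS at pH 7.2. Ligand (acetylcholine or non-native ligand) was added in NaI-substituted ECS. Percent quench was the mean of the last 10 s relative to the 15 s pre-addition baseline.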

B1: CODA75: non-responding chimeric engineered receptor used as the negative control (protein)
chain: MRCSPGGVWLALAASLLHVSLQGEFQRKLYKELVKNYNPLERPVANDSQPLTVYFSLSLLQIMDVDEKNQVLTTNIWLQMSWTDHYLQWNVSEYPGVKTVRFPDGQIWKPDILLYNSADERFDATFHTNVLVNSSGHCQYLPPGIFKSSCYIDVRWFPFDVQHCKLKFGSWSYGGWSLDLQMQEADISGYIPNGEWDLVGIPGKRSERFYECCKEPYPDVTFTVTMRRRTGYYLIQMYIPSLLIVILSWISFWINMDAAPARVGLGITTVLTMTTQSSGSEIMPATSDSVPLIAQAIDIWMAVCLLFVFSALLEYAAVNFVSRQHKELLRFRRKRRHHKSPMLNLFQEDEAGEGRFNFSAYGMGPACLQAKDGISVKGANNSNTTNPPPAPSKSPEEMRKLFIQRAKKIDKISRIGFPMAFLIFNMFYWIIYKIVRREDVHNQ
modifications: synthetic sequence of chimeric LGIC
notes: non-responding chimeric engineered receptor used as the negative control
B1 was tested, and the “YFP fluorescence quenching using CNL001” value (1 nM CNL001, first column) was −8.496%, the “YFP fluorescence quenching using CNL001” value (1 nM CNL001, second column) was −2.266% and the “YFP fluorescence quenching using TC-5619/Bradanicline” value (1 nM brd) was −13.39%. For the same molecule, the “YFP fluorescence quenching using TC-5619/Bradanicline” value (3 nM brd) was −15.78%, the “YFP fluorescence quenching using Varenicline” value (3 nM var, first column) was 4.161 and the “YFP fluorescence quenching using Varenicline” value (3 nM var, second column) was −6.216. The “YFP fluorescence quenching using CNL001” value (10 nM CNL001, first column) was 1.816%, the “YFP fluorescence quenching using CNL001” value (10 nM CNL001, second column) was −4.649% and the “YFP fluorescence quenching using TC-5619/Bradanicline” value (10 nM brd) was −13.47%. For the same molecule, the “YFP fluorescence quenching using TC-5619/Bradanicline” value (30 nM brd) was −16.41%, the “YFP fluorescence quenching using Facinicline” value (30 nM fac) was −11.68 and the “YFP fluorescence quenching using Varenicline” value (30 nM var, first column) was −5.173. The “YFP fluorescence quenching using Varenicline” value (30 nM var, second column) was −6.593, the “YFP fluorescence quenching using CNL001” value (50 nM CNL001, first column) was −5.922% and the “YFP fluorescence quenching using CNL001” value (50 nM CNL001, second column) was −5.597%. The “YFP fluorescence quenching using ABT-126” value (50 nM abt) was −17.07%, the “YFP fluorescence quenching using CNL001” value (100 nM CNL001, first column) was −8.159% and the “YFP fluorescence quenching using CNL001” value (100 nM CNL001, second column) was −5.058%. For the same molecule, the “YFP fluorescence quenching using CNL002” value (100 nM CNL002) was −7.94%, the “YFP fluorescence quenching using ABT-126” value (100 nM abt) was −16.76% and the “YFP fluorescence quenching using AZD-0328” value (100 nM azd0328) was −8.83%. The “YFP fluorescence quenching using Facinicline” value (100 nM fac) was 4.35, the “YFP fluorescence quenching using ABT-126” value (300 nM abt) was −16.76% and the “YFP fluorescence quenching using AZD-0328” value (300 nM azd0328) was −11.15%. The “YFP fluorescence quenching using TC-5619/Bradanicline” value (300 nM brd) was −17.56%, the “YFP fluorescence quenching using Facinicline” value (300 nM fac) was −10.55 and the “YFP fluorescence quenching using Varenicline” value (300 nM var, first column) was −5.733. For the same molecule, the “YFP fluorescence quenching using Varenicline” value (300 nM var, second column) was −7.312, the “YFP fluorescence quenching using ABT-126” value (500 nM abt) was −14.68% and the “YFP fluorescence quenching using Varenicline” value (500 nM var, first column) was −10.35. The “YFP fluorescence quenching using Varenicline” value (500 nM var, second column) was −7.586, the “YFP fluorescence quenching using CNL001” value (1 uM CNL001, first column) was −4.272% and the “YFP fluorescence quenching using CNL001” value (1 uM CNL001, second column) was −1.281%. The “YFP fluorescence quenching using CNL002” value (1 uM CNL002) was −9.81%, the “YFP fluorescence quenching using ABT-126” value (1 uM abt) was −16% and the “YFP fluorescence quenching using TC-6987” value (1 uM tc6987) was −11.79. The “YFP fluorescence quenching using Varenicline” value (1 uM var, first column) was −5.637, the “YFP fluorescence quenching using Varenicline” value (1 uM var, second column) was −3.757 and the “YFP fluorescence quenching using ABT-126” value (3 uM abt) was −14.11%. The “YFP fluorescence quenching using ABT-126” value (10 uM abt) was −13.98%, the “YFP fluorescence quenching using TC-6987” value (10 uM tc6987) was −14.31 and the “YFP fluorescence quenching using CNL002” value (30 uM CNL002) was −15.27%. The “YFP fluorescence quenching using ABT-126” value (30 uM abt) was −21.05%, the “YFP fluorescence quenching using AZD-0328” value (30 uM azd0328) was −11.92% and the “YFP fluorescence quenching using Facinicline” value (30 uM fac) was −5.25. The “YFP fluorescence quenching using ABT-126” value (50 uM abt) was −21.35%, the “YFP fluorescence quenching using ABT-126” value (100 uM abt) was −24.12% and the “YFP fluorescence quenching using TC-6987” value (500 uM tc6987) was −19.65. The “percent quench of YFP fluorescence, 10 uM ach” value was −12.88%, the “percent quench of YFP fluorescence, 30 uM ach” value was −18.67% and the “percent quench of YFP fluorescence, 50 uM ach” value (acetylcholine 50 uM) was −0.29%. The “percent quench of YFP fluorescence, 100 uM ach” value was −14.46%, the “percent quench of YFP fluorescence, 300 uM ach” value was −16.31% and the “percent quench of YFP fluorescence, 500 uM ach” value (acetylcholine 500 uM) was −17.41%. For the same molecule, the “percent quench of YFP fluorescence, 1 mM ach” value (“percent quench … 1 mM ach” for short) was −16.46%, the “percent quench of YFP fluorescence, 3 mM ach” value (“percent quench … 3 mM ach” below) was −12.38% and the “percent quench of YFP fluorescence, 5 mM ach” value (acetylcholine 5 mM) was −20.88%. For the same molecule, the “percent quench of YFP fluorescence, 10 mM ach” value (acetylcholine 10 mM) was −8.69%.

B2: CODA1157: engineered chimeric LGIC receptor, Q139E, S172D in SEQ ID NO: 33 (protein)
chain: MRCSPGGVWLALAASLLHVSLQGEFQRKLYKELVKNYNPLERPVANDSQPLTVYFSLSLLQIMDVDEKNQVLTTNIWLQMSWTDHYLQWNVSEYPGVKTVRFPDGQIWKPDILLYNSADERFDATFHTNVLVNSSGHCEYLPPGIFKSSCPMDLKNFPMDVQTCKLKFGSWDYGGWSLDLQMQEADISGYIPNGEWDLVGIPGKRSERFYECCKEPYPDVTFTVTMRRRMGYYLIQMYIPSLLIVILSWISFWINMDAAPARVGLGITTVLTMTTQSSGSRASLPKVSYVKAIDIWMAVCLLFVFSALLEYAAVNFVSRQHKELLRFRRKRRHHKSPMLNLFQEDEAGEGRFNFSAYGMGPACLQAKDGISVKGANNSNTTNPPPAPSKSPEEMRKLFIQRAKKIDKISRIGFPMAFLIFNMFYWIIYKIVRREDVHNQ
modifications: synthetic sequence of chimeric LGIC
With B2 the “YFP fluorescence quenching using CNL001” value (1 nM CNL001, first column) was 68.362%, the “YFP fluorescence quenching using CNL001” value (1 nM CNL001, second column) was 69.495% and the “YFP fluorescence quenching using Varenicline” value (3 nM var, first column) was −0.225. For the same molecule, the “YFP fluorescence quenching using Varenicline” value (3 nM var, second column) was −1.954, the “YFP fluorescence quenching using CNL001” value (10 nM CNL001, first column) was 75.078% and the “YFP fluorescence quenching using CNL001” value (10 nM CNL001, second column) was 74.193%. For the same molecule, the “YFP fluorescence quenching using Varenicline” value (30 nM var, first column) was 1.269, the “YFP fluorescence quenching using Varenicline” value (30 nM var, second column) was 5.972 and the “YFP fluorescence quenching using CNL001” value (50 nM CNL001, first column) was 77.481%. For the same molecule, the “YFP fluorescence quenching using CNL001” value (50 nM CNL001, second column) was 77.205%, the “YFP fluorescence quenching using ABT-126” value (50 nM abt) was −26.77% and the “YFP fluorescence quenching using CNL001” value (100 nM CNL001, first column) was 77%. For the same molecule, the “YFP fluorescence quenching using CNL001” value (100 nM CNL001, second column) was 77.042%, the “YFP fluorescence quenching using CNL002” value (100 nM CNL002) was 80.62% and the “YFP fluorescence quenching using ABT-126” value (100 nM abt) was −24.64%. The “YFP fluorescence quenching using ABT-126” value (300 nM abt) was −10.64%, the “YFP fluorescence quenching using Varenicline” value (300 nM var, first column) was 6.84 and the “YFP fluorescence quenching using Varenicline” value (300 nM var, second column) was 5.943. For the same molecule, the “YFP fluorescence quenching using Varenicline” value (500 nM var, first column) was 8.717, the “YFP fluorescence quenching using Varenicline” value (500 nM var, second column) was 6.41 and the “YFP fluorescence quenching using CNL001” value (1 uM CNL001, first column) was 78.2%. The “YFP fluorescence quenching using CNL001” value (1 uM CNL001, second column) was 76.244%, the “YFP fluorescence quenching using CNL002” value (1 uM CNL002) was 81.32% and the “YFP fluorescence quenching using ABT-126” value (1 uM abt) was 19.57%. The “YFP fluorescence quenching using Varenicline” value (1 uM var, first column) was 5.635, the “YFP fluorescence quenching using Varenicline” value (1 uM var, second column) was 7.068 and the “YFP fluorescence quenching using ABT-126” value (10 uM abt) was 55.64%. The “percent quench of YFP fluorescence, 10 uM ach” value was −36.89%, the “percent quench of YFP fluorescence, 30 uM ach” value was −37.78% and the “percent quench of YFP fluorescence, 100 uM ach” value was −25.67%. For the same molecule, the “percent quench of YFP fluorescence, 300 uM ach” value was −18.94%, the “percent quench … 1 mM ach” value was 16.38% and the “percent quench … 3 mM ach” value was 45.71%.

B3: CODA1173: engineered chimeric LGIC receptor, S172D, Y210W in SEQ ID NO: 33 (protein)
chain: B2 chain with E139Q, Y210W
modifications: synthetic sequence of chimeric LGIC
With B3 the “YFP fluorescence quenching using CNL001” value (1 nM CNL001, first column) was 16.321%, the “YFP fluorescence quenching using CNL001” value (1 nM CNL001, second column) was 30.264% and the “YFP fluorescence quenching using Varenicline” value (3 nM var, first column) was 9.211. For the same molecule, the “YFP fluorescence quenching using Varenicline” value (3 nM var, second column) was 7.193, the “YFP fluorescence quenching using CNL001” value (10 nM CNL001, first column) was 61.978% and the “YFP fluorescence quenching using CNL001” value (10 nM CNL001, second column) was 65.343%. For the same molecule, the “YFP fluorescence quenching using Varenicline” value (30 nM var, first column) was 7.821, the “YFP fluorescence quenching using Varenicline” value (30 nM var, second column) was 9.078 and the “YFP fluorescence quenching using CNL001” value (50 nM CNL001, first column) was 73.006%. The “YFP fluorescence quenching using CNL001” value (50 nM CNL001, second column) was 74.903%, the “YFP fluorescence quenching using ABT-126” value (50 nM abt) was 5.15% and the “YFP fluorescence quenching using CNL001” value (100 nM CNL001, first column) was 76%. The “YFP fluorescence quenching using CNL001” value (100 nM CNL001, second column) was 76.759%, the “YFP fluorescence quenching using CNL002” value (100 nM CNL002) was 70.15% and the “YFP fluorescence quenching using ABT-126” value (100 nM abt) was 25.08%. The “YFP fluorescence quenching using ABT-126” value (300 nM abt) was 66.86%, the “YFP fluorescence quenching using Varenicline” value (300 nM var, first column) was 6.933 and the “YFP fluorescence quenching using Varenicline” value (300 nM var, second column) was 8.36. For the same molecule, the “YFP fluorescence quenching using Varenicline” value (500 nM var, first column) was 5.501, the “YFP fluorescence quenching using Varenicline” value (500 nM var, second column) was 7.04 and the “YFP fluorescence quenching using CNL001” value (1 uM CNL001, first column) was 76.928%. For the same molecule, the “YFP fluorescence quenching using CNL001” value (1 uM CNL001, second column) was 76.619%, the “YFP fluorescence quenching using CNL002” value (1 uM CNL002) was 77.33% and the “YFP fluorescence quenching using ABT-126” value (1 uM abt) was 66.94%. For the same molecule, the “YFP fluorescence quenching using Varenicline” value (1 uM var, first column) was 7.174, the “YFP fluorescence quenching using Varenicline” value (1 uM var, second column) was 5.185 and the “YFP fluorescence quenching using ABT-126” value (10 uM abt) was 78.67%. For the same molecule, the “percent quench … 1 mM ach” value was −6.12% and the “percent quench … 3 mM ach” value was 11.31%.

Reference: patent US20240317834A1, “COMPOSITIONS AND METHODS FOR NEUROLOGICAL DISEASES” (CODA BIOTHERAPEUTICS, INC., priority 2020, published 2024)
